Legend:
Conditions in all cases: 200 nM
[1] = target: T1, Zap1 (Saccharomyces cerevisiae) (UniProt P47043)
T1 sequence: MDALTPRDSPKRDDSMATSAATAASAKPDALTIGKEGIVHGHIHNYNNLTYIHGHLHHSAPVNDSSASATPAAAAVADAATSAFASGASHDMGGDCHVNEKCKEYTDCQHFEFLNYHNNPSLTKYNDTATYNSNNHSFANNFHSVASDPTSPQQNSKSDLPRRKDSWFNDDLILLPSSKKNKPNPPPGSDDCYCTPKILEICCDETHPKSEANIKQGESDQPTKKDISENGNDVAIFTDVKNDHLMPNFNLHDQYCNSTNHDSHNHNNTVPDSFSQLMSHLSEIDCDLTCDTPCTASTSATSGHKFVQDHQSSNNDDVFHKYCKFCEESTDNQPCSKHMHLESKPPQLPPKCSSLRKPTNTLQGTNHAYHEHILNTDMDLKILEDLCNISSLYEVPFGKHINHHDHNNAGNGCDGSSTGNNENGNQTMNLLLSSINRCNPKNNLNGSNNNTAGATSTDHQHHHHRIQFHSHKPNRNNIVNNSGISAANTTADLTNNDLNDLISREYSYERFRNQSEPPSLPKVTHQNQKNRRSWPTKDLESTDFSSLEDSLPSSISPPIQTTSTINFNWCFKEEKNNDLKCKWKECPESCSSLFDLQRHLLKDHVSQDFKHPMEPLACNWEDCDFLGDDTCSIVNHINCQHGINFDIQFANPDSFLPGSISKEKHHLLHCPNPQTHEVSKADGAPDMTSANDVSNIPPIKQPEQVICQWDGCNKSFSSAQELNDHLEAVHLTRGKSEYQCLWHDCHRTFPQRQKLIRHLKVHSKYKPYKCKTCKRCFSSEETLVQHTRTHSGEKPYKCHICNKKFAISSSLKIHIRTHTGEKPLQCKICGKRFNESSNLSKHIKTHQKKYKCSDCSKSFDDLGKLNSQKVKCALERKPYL

[2] = target: T2, Vhr2 (Saccharomyces cerevisiae) (UniProt P40041)
T2 sequence: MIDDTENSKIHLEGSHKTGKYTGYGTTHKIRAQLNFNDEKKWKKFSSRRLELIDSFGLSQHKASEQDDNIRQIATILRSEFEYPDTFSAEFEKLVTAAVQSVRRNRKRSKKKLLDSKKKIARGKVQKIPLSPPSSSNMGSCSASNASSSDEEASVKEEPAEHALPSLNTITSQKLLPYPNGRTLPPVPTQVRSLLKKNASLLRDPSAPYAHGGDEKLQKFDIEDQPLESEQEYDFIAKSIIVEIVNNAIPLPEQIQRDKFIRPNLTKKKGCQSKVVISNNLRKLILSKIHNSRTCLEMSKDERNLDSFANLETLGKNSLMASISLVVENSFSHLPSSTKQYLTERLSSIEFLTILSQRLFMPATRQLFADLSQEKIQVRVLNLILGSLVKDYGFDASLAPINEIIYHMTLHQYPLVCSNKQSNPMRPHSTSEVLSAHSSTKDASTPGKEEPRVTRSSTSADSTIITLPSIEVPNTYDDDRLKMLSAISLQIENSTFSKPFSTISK

[3] = target: T3, Ybr033w (Saccharomyces cerevisiae) (UniProt P38073)
T3 sequence: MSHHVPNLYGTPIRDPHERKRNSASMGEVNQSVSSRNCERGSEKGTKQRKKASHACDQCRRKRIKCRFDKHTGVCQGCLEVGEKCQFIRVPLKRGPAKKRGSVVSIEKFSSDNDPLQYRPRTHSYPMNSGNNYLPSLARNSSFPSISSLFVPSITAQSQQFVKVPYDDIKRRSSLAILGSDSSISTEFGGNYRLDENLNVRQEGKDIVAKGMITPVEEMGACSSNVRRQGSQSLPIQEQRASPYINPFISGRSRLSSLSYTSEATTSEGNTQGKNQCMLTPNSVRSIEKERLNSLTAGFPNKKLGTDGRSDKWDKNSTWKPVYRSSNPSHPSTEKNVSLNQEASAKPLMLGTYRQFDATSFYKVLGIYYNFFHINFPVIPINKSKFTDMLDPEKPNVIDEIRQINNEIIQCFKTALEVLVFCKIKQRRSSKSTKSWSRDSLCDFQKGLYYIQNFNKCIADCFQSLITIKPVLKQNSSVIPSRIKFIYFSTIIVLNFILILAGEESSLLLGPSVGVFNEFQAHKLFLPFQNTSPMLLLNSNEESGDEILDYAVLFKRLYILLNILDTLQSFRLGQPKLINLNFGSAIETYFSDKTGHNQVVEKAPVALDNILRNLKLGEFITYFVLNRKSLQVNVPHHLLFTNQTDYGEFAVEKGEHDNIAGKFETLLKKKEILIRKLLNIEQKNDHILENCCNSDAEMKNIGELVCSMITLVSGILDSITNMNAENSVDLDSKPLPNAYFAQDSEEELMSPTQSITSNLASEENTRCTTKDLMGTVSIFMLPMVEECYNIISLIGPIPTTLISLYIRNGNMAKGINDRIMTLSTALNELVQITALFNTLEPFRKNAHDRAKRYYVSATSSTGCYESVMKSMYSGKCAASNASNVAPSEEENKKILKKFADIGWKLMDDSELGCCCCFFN

[4] = target: T4, Vhr1 (Saccharomyces cerevisiae) (UniProt P40522)
T4 sequence: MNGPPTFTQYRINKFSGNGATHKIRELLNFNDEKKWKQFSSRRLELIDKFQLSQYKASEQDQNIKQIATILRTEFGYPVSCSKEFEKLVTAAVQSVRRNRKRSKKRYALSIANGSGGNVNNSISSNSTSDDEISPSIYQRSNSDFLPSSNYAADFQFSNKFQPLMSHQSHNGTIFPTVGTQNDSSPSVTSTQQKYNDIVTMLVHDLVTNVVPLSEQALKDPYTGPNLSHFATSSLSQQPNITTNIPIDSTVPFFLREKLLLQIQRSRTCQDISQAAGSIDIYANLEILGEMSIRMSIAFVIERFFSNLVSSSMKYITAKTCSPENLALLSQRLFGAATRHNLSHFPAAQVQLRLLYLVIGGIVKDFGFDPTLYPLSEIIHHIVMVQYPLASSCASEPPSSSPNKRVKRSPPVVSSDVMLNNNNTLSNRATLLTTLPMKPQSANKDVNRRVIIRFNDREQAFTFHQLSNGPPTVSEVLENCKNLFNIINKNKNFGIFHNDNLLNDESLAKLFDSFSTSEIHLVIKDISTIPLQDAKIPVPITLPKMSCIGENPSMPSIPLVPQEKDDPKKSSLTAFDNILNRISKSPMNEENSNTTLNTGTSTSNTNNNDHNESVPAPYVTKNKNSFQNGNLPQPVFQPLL

| Sequence | binding signal (PBM E-score (-0.5 to 0.5)) [1] | binding signal (PBM E-score (-0.5 to 0.5)) [2] | binding signal (PBM E-score (-0.5 to 0.5)) [3] | binding signal (PBM E-score (-0.5 to 0.5)) [4] |
| --- | --- | --- | --- | --- |
| AAAGGTTA (double strand) [8-mer AAAGGTTA] | 0.479 |  |  |  |
| AAGGGTTA (double strand) [8-mer AAGGGTTA] | 0.489 |  |  |  |
| AAGGTTAT (double strand) [8-mer AAGGTTAT] | 0.478 |  |  |  |
| AATGACTC (double strand) [8-mer AATGACTC] |  | 0.495 |  |  |
| AATGTTCC (double strand) [8-mer AATGTTCC] |  |  | 0.471 |  |
| AATTATCC (double strand) [8-mer AATTATCC] |  |  | 0.471 |  |
| AGAGGTTA (double strand) [8-mer AGAGGTTA] | 0.476 |  |  |  |
| AGGGGTTA (double strand) [8-mer AGGGGTTA] | 0.479 |  |  |  |
| AGGGTTAC (double strand) [8-mer AGGGTTAC] | 0.484 |  |  |  |
| AGGGTTAT (double strand) [8-mer AGGGTTAT] | 0.49 |  |  |  |
| AGGTTACC (double strand) [8-mer AGGTTACC] | 0.476 |  |  |  |
| AGTGACTC (double strand) [8-mer AGTGACTC] |  |  |  | 0.481 |
| ATAACCCC (double strand) [8-mer ATAACCCC] | 0.476 |  |  |  |
| ATAACCTC (double strand) [8-mer ATAACCTC] | 0.487 |  |  |  |
| ATGACTAA (double strand) [8-mer ATGACTAA] |  | 0.494 |  |  |
| ATGACTAC (double strand) [8-mer ATGACTAC] |  | 0.494 |  |  |
| ATGACTCA (double strand) [8-mer ATGACTCA] |  | 0.499 |  | 0.495 |
| ATGACTCC (double strand) [8-mer ATGACTCC] |  | 0.493 |  | 0.494 |
| ATGAGTCA (double strand) [8-mer ATGAGTCA] |  | 0.498 |  | 0.492 |
| ATTAATCC (double strand) [8-mer ATTAATCC] |  |  | 0.486 |  |
| ATTATTCC (double strand) [8-mer ATTATTCC] |  |  | 0.479 |  |
| ATTGTTCC (double strand) [8-mer ATTGTTCC] |  |  | 0.484 |  |
| ATTTATCC (double strand) [8-mer ATTTATCC] |  |  | 0.485 |  |
| ATTTTCCG (double strand) [8-mer ATTTTCCG] |  |  | 0.472 |  |
| ATTTTTCC (double strand) [8-mer ATTTTTCC] |  |  | 0.486 |  |

| Sequence | binding signal (PBM E-score (-0.5 to 0.5)) [1] | binding signal (PBM E-score (-0.5 to 0.5)) [2] | binding signal (PBM E-score (-0.5 to 0.5)) [3] | binding signal (PBM E-score (-0.5 to 0.5)) [4] |
| --- | --- | --- | --- | --- |
| CAGGGTTA (double strand) [8-mer CAGGGTTA] | 0.477 |  |  |  |
| CATAACCC (double strand) [8-mer CATAACCC] | 0.482 |  |  |  |
| CATGACTC (double strand) [8-mer CATGACTC] |  | 0.494 |  | 0.485 |
| CCATAACC (double strand) [8-mer CCATAACC] | 0.479 |  |  |  |
| CGGAAAAA (double strand) [8-mer CGGAAAAA] |  |  | 0.495 |  |
| CGGAACAA (double strand) [8-mer CGGAACAA] |  |  | 0.491 |  |
| CGGAGTCA (double strand) [8-mer CGGAGTCA] |  |  |  | 0.485 |
| CGGATAAA (double strand) [8-mer CGGATAAA] |  |  | 0.488 |  |
| CGGATCAA (double strand) [8-mer CGGATCAA] |  |  | 0.472 |  |
| CGGATTAA (double strand) [8-mer CGGATTAA] |  |  | 0.482 |  |
| CGTAACCC (double strand) [8-mer CGTAACCC] | 0.482 |  |  |  |
| CTGACTCA (double strand) [8-mer CTGACTCA] |  | 0.494 |  | 0.49 |
| CTGAGTCA (double strand) [8-mer CTGAGTCA] |  | 0.496 |  | 0.489 |
| GAGTCACA (double strand) [8-mer GAGTCACA] |  |  |  | 0.487 |
| GAGTCACC (double strand) [8-mer GAGTCACC] |  | 0.496 |  | 0.491 |
| GAGTCATA (double strand) [8-mer GAGTCATA] |  | 0.495 |  | 0.484 |
| GAGTCATC (double strand) [8-mer GAGTCATC] |  | 0.497 |  | 0.492 |
| GATGACTA (double strand) [8-mer GATGACTA] |  | 0.495 |  |  |
| GGAAAAAA (double strand) [8-mer GGAAAAAA] |  |  | 0.472 |  |
| GGAAAAAC (double strand) [8-mer GGAAAAAC] |  |  | 0.476 |  |
| GGAGTCAC (double strand) [8-mer GGAGTCAC] |  |  |  | 0.485 |
| GGTTATGA (double strand) [8-mer GGTTATGA] | 0.48 |  |  |  |
| GTGACTCA (double strand) [8-mer GTGACTCA] |  | 0.498 |  | 0.496 |
| GTGAGTCA (double strand) [8-mer GTGAGTCA] |  | 0.498 |  | 0.494 |

Reference: PMC3334620
